According to paper PMC7341897 (Nature cell biology, 2019):

Key:
[1] = biological target: Survivin (UniProt O15392); test: fluorescent peptide partitioning into ISB coacervates; settings: reference: unmodified H3 peptide; sites T3
[2] = biological target: INCENP^1-58-Survivin-Borealin (ISB) complex, wild type (UniProt Q9NQS7 1-58; O15392 1-142; Q53HL2 1-280); test: partitioning of a fluorescent client into preformed coacervates
[3] = biological target: ISB complex lacking amino acids 139-160 of Borealin (UniProt Q9NQS7 1-58; O15392 1-142; Q53HL2 1-280, Δ139-160); test: as above

binding result [3] | Molecule | binding against the reference [1] | binding result [2]
 | histone H3 (synthetic N-terminal peptide) (from UniProt P68431) H3pT3 peptide | stronger | 
binds | hSgo1^1-112 labeled with CF555 (domain or fragment, human, UniProt Q5FBB7 1-112, looked up, CF-555 label (Mix-n-Stain CF-555 labeling kit)) MAKERCLKKSFQDSLEDIKKRMKEKRNKNLAEIGKRRSFIAAPCQIITNTSTLLKNYQDNNKMLVLALENEKSKVKEAQDIILQLRKECYYLTCQLYALKGKLTSQQTVEPA |  | binds
